Experiments:
[1] = biological target: T1, BRCA2 CTD;DSS1 (human;human?, UniProt P51587;P60896 2474-3190;1-70, |); assay: EMSA; EMSA: 25 mM Tris acetate pH 7.5, 1 mM DTT, 1 mM MgCl2, 2 mM CaCl2, 0.2 uM nucleotides DNA, 1 h at 37 C; 6% native PAGE in 1x TAE; conditions: protein: recombinant;recombinant; tags: 6xHis-SUMO;; copies: 1;1; label: 5'-32P on oAC405; blunt
[2] = biological target: T2, BRCA2T1 (human, UniProt P51587 1-250); assay: EMSA; up to 300 nM; EMSA: 25 mM Tris acetate pH 7.5, 1 mM DTT, 1 mM MgCl2, 2 mM CaCl2, 0.2 uM nucleotides DNA, 1 h at 37 C; 6% native PAGE in 1x TAE; conditions: protein: recombinant; tags: N-terminal 2xMBP, 2 NLS; label: 5'-32P
T2 sequence: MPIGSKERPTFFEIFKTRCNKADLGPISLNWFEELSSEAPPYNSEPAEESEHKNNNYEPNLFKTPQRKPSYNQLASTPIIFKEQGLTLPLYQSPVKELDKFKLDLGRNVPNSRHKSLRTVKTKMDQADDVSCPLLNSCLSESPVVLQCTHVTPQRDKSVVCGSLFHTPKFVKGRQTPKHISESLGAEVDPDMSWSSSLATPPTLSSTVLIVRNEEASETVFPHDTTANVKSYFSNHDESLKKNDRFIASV

[3] = biological target: T2, BRCA2T1; assay: pull-down; not titrated out by free dT40; EMSA: 25 mM Tris acetate pH 7.5, 1 mM DTT, 1 mM MgCl2, 2 mM CaCl2, 0.2 uM nucleotides DNA, 1 h at 37 C; 6% native PAGE in 1x TAE; conditions: protein: recombinant; tags: N-terminal 2xMBP, 2 NLS; label: biotin, on streptavidin beads
[4] = biological target: T3, BRCA2T2 (NTD) (human, UniProt P51587 251-500); assay: pull-down; titrated out by excess free dT40; EMSA: 25 mM Tris acetate pH 7.5, 1 mM DTT, 1 mM MgCl2, 2 mM CaCl2, 0.2 uM nucleotides DNA, 1 h at 37 C; 6% native PAGE in 1x TAE; conditions: protein: recombinant; tags: N-terminal 2xMBP, 2 NLS; label: biotin, on streptavidin beads
T3 sequence: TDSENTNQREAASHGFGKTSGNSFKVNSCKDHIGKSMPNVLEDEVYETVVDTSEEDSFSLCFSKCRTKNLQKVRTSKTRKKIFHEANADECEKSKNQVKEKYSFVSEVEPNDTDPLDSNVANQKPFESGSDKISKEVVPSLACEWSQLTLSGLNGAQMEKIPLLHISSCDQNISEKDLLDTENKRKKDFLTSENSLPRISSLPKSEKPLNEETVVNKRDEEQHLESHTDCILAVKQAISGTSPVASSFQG

[5] = biological target: T1, BRCA2 CTD;DSS1; assay: EMSA; lower yield than BRCA2T2; EMSA: 25 mM Tris acetate pH 7.5, 1 mM DTT, 1 mM MgCl2, 2 mM CaCl2, 0.2 uM nucleotides DNA, 1 h at 37 C; 6% native PAGE in 1x TAE; conditions: protein: recombinant;recombinant, tags: 6xHis-SUMO;, copies: 1;1
[6] = biological target: T3, BRCA2T2 (NTD); assay: EMSA; yield similar to dsDNA (~40%) at 1.5 uM; EMSA: 25 mM Tris acetate pH 7.5, 1 mM DTT, 1 mM MgCl2, 2 mM CaCl2, 0.2 uM nucleotides DNA, 1 h at 37 C; 6% native PAGE in 1x TAE; conditions: protein: recombinant; tags: N-terminal 2xMBP, 2 NLS; label: 5'-32P
[7] = biological target: BRCA2 full length (human, UniProt P51587 1-3418); assay: EMSA; ~100 times lower concentration needed than BRCA2T2; EMSA: 25 mM Tris acetate pH 7.5, 1 mM DTT, 1 mM MgCl2, 2 mM CaCl2, 0.2 uM nucleotides DNA, 1 h at 37 C; 6% native PAGE in 1x TAE; conditions: protein: recombinant; tags: N-terminal EGFP-MBP; label: 5'-32P
[8] = biological target: T3, BRCA2T2 (NTD); assay: EMSA; higher yield than CTD; EMSA: 25 mM Tris acetate pH 7.5, 1 mM DTT, 1 mM MgCl2, 2 mM CaCl2, 0.2 uM nucleotides DNA, 1 h at 37 C; 6% native PAGE in 1x TAE; conditions: protein: recombinant, tags: N-terminal 2xMBP, 2 NLS
[9] = biological target: T3, BRCA2T2 (NTD); assay: EMSA; EMSA: 25 mM Tris acetate pH 7.5, 1 mM DTT, 1 mM MgCl2, 2 mM CaCl2, 0.2 uM nucleotides DNA, 1 h at 37 C; 6% native PAGE in 1x TAE; conditions: protein: recombinant; tags: N-terminal 2xMBP, 2 NLS; label: 32P; 1:2 1:3, two 42 bp duplexes with 83 nt gap
[10] = biological target: T1, BRCA2 CTD;DSS1; assay: EMSA; ~40-fold lower yield than BRCA2T2 at 1 uM; EMSA: 25 mM Tris acetate pH 7.5, 1 mM DTT, 1 mM MgCl2, 2 mM CaCl2, 0.2 uM nucleotides DNA, 1 h at 37 C; 6% native PAGE in 1x TAE; conditions: protein: recombinant;recombinant; tags: 6xHis-SUMO;; copies: 1;1; label: 32P; 1:2 1:3, two 42 bp duplexes with 83 nt gap

B1: 40 bp dsDNA (oAC405/oAC406) (dsDNA)
DNA 1: TAATACAAAATAAGTAAATGAATAAACAGAGAAAATAAAG
DNA 2: CTTTATTTTCTCTGTTTATTCATTTACTTATTTTGTATTA
Does B1 bind [1]?
Result: no binding

Does TTTTTTTTTTTTTTTTTTTTTTTTTTTTTTTTTTTTTTTT (ssDNA) [dT40 (oAC379)] bind [2]?
Result: no binding

B2: dT80 biotin (ssDNA)
DNA: TTTTTTTTTTTTTTTTTTTTTTTTTTTTTTTTTTTTTTTTTTTTTTTTTTTTTTTTTTTTTTTTTTTTTTTTTTTTTTTT
modifications: 3'-biotin
Which results are given for B2?
binding result [3]: no binding; binding result [4]: binds

B3: 167mer ssDNA (oAC423) (ssDNA)
DNA: CTGCTTTATCAAGATAATTTTTCGACTCATCAGAAATATCCGTTTCCTATATTTATTCCTATTATGTTTTATTCATTTACTTATTCTTTATGTTCATTTTTTATATCCTTTACTTTATTTTCTCTGTTTATTCATTTACTTATTTTGTATTATCCTTATCTTATTTA
Does B3 bind ([5]; label: 5'-32P)?
Result: binds

Does B3 bind [6]?
Result: binds

Does B3 bind [7]?
Result: binds

B4: 3' overhang (oAC423 + oAC490 as stated) (mixed)
DNA 1: CTGCTTTATCAAGATAATTTTTCGACTCATCAGAAATATCCGTTTCCTATATTTATTCCTATTATGTTTTATTCATTTACTTATTCTTTATGTTCATTTTTTATATCCTTTACTTTATTTTCTCTGTTTATTCATTTACTTATTTTGTATTATCCTTATCTTATTTA
DNA 2: TAAATAAGATAAGGATAATACAAAATAAGTAAATGAATAAAC
What does the source list for B4?
binding result ([8]; label: 32P on oAC490): binds; binding result ([5]; label: 32P on oAC490): binds

B5: 5' overhang (oAC423 + oAC403 as stated) (mixed)
DNA 1: CTGCTTTATCAAGATAATTTTTCGACTCATCAGAAATATCCGTTTCCTATATTTATTCCTATTATGTTTTATTCATTTACTTATTCTTTATGTTCATTTTTTATATCCTTTACTTTATTTTCTCTGTTTATTCATTTACTTATTTTGTATTATCCTTATCTTATTTA
DNA 2: CGGATATTTCTGATGAGTCGAAAAATTATCTTGATAAAGCAG
Does B5 bind ([8]; label: 32P)?
Result: binds

Does B5 bind ([5]; label: 32P)?
Result: binds

B6: gapped DNA (oAC423 + oAC403 + oAC490) (mixed)
DNA 1: CTGCTTTATCAAGATAATTTTTCGACTCATCAGAAATATCCGTTTCCTATATTTATTCCTATTATGTTTTATTCATTTACTTATTCTTTATGTTCATTTTTTATATCCTTTACTTTATTTTCTCTGTTTATTCATTTACTTATTTTGTATTATCCTTATCTTATTTA
DNA 2: CGGATATTTCTGATGAGTCGAAAAATTATCTTGATAAAGCAG
DNA 3: TAAATAAGATAAGGATAATACAAAATAAGTAAATGAATAAAC
For B6, which binding signal [9] is on record?
Its binding signal is ~40 fold higher yield than CTD at 1 uM.

Does B6 bind [10]?
Result: binds
